# From the nanobody polyreactivity screen of Harvey et al. (2022)
# Test: yeast display, Sf9 membrane polyspecificity reagent, FACS + sequencing; frameworks hold sequencing errors
# Procedure, shortened: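 A nanobody's polyreactivity label depends on the gate it was sorted from. Yeast display cells were stained with 10% biotinylated, detergent-solubilized Sf9 membrane reagent for 1 hour at 4 °C, enriched on streptavidin microbeads and sorted by FACS. The low and high (top ~1%) gates were set on anti-HA fluorescence for expression and streptavidin fluorescence for reagent binding.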
row,Sequence,polyreactivity (PSR sort gate)
1,QVQLVESGGGLVQAGGSLRLSCAASGSTFWYYAMGWSRQAPGKERELVADITYSGVSTYYADSVKGRFTISRDNAKNTVYLQMNSLKPEDTAVYYCNAVWGSVKGYSGYYYWGPGTQVTVSS,low polyreactivity
2,QVQLVESGGGLVQAGGSLRLSCAASGRTFWINAMGWYRQAPGKERELVAAITRGGRTYADSVKGRFTISRDNAKYTVYLQMNSLKPEDTAVYYCAAESYRLSGHHGYDYWGQCTQVTVSS,high polyreactivity
3,QVQLVDSGGGLVQAGGRLRLSCAASGFTFPSNAMGWYRKAPGKERQLVASINQRGGSTYYADSVKGRFTISRDNAKNTVYLQMNSLKPEDTAVYYCAAGPTSRRWYDYWGQGTQVTVSS,high polyreactivity
4,QVQLVESGGGLVQAGGSLRLSCAASGITFSYYAMGWYRQAPGKERELVAASTSGGSTKYADSVKGRFTISRDNAKNTVYFQMNSLKPEDTAVYYCAVRIRRSHDYDYWGQGPQVTVSS,low polyreactivity
5,QVQLVESGGGLVQAGGSLRLSCAASGITFYDKAMGWYREAPGKERELVAGISYDGDSTYADSVKGRFTISRDNAKNTVYLQMNSLKPEDTAVYYCAALGPYDWLWAGDYWGQGTQVTVSS,low polyreactivity
6,QVQLVESGGGLVQAGGSLRLSCAASGRTFGRYVMGWYRQAPGKERELVAAIDGSGGSTYYADSVKGRFTISRDNAKNTVYLQMNSLKPEDTAVYYCNADVGFVGGDYWGQGTQVTVSS,high polyreactivity
7,QVQLVESGGGLVQAGGSLRLSCAASGSIFTCNAMGWYRQAPGKERELVAAISYISGGTYYADSVKGRFTISRDNAKNTVYLQMNSLKPEDTAVYYCAAVVYYYTYHYWGQGTQGTVSS,low polyreactivity
8,QVQLVESGGGLVQAGGSLRLSCAASGFTFLYYAMGWYRHAPGKERELVAAITTGSSTNYADSVKGRFTISRDNAKNTVYLQMNSLKPEDTAVYYCAAEYYYRVWYGHYYEYDYWGQGTQVTVSS,high polyreactivity
9,QVQLVESGGGLVQAGGSLRLSCAASGRIFRYNTMGWYRQAPGKERELVAAINSSGGRTYYADSVKGRFTISRDNAKNTVYLQMNSLKPEDTSVYYCAAVIYVLSGPGYDYWGQGTQVTVSS,high polyreactivity
10,QVQLVESGGGLVQAGGSLRLSCAASGSTFTYYAMGWYRQAPGKERELVAAITSSGSTNYADSVKGRFTISRDNAKNTVYLQMNSLKPEDTAVYYCNAVSKWAIYDYWGQGTQVTVSS,high polyreactivity
11,QVQLVESGGGLVHAGGSLRLSCAASGSTYIFYAMGWYRQAPGKERELVPAITGGGSTYYADSVKGRFTISRDNAKNTVYLQMNSLKPEDTAVFYCARAEPYYSKSFSLGGYGYWGQGTKVTVSS,low polyreactivity
12,QVQLVESGGGLVQAGGSLRLICAASGSILYRYAMGWYRQAPGKERELVASISWSDGSTYYADSVKGRFTISRDNAKNTLYLQMNSLKPEDTAVYYCAAKGWGSDSYYAYGYDYWGQGTQVTVSS,low polyreactivity
13,QVQLVESGGGLVQGGGSLRLSCAASGFIFRYYAMGWYRQAPGKERELVAAINGRGDSTYYADSVKGRFTISRDNAKNTVYLQMNSLKPEDTAVYYCAAQGYRYLSRDRYDYWGQGTQVTVSS,high polyreactivity
14,QVQLVESGGGLVQAGGSLRLSCAASGLIFYKNTMGWYRQAPGKERELVATITGRGGRTYYADSVKGRFTISRDIAKNSVYFQMNSLKPEDTAVYYCAARNQGRGYYWGQGTQVTVSS,high polyreactivity
15,QVQLVESGGGLVQAGGSLRLSCAASGRIFWGYAMGWYRQAPGKERELVAAINRGSSTYYADSVKGRFTISRDNAKNTVYLQMNSLKPEDTAVYYCAVKGYLPYTGIFDYWGQGTQVTVSS,high polyreactivity
16,QVQLVESGGGLVQAGGSLRLSCAASGFTFYWYAMGWYRQAPGKERELVAAISNRGGSTYYADSVKGRFTISRDNAKNTVYLQMNSLKPEDTAVYYCATESRGVGAARYDYWGQGTQVTVSS,high polyreactivity
17,QVQLVESGGGLVQAGGSLRLSCAASGSIFSTNAMGWYRQAPGKERELVATISGADGTNYADSVKGRFTISRDNAKNTVYLQMNSLKPEDTAVYYSNAFPWPVYRGYYWGQGTQVTVSS,low polyreactivity
18,QVQLVESGVGLVQAGGSLRLSSAASGSIFHSYAMGWYRQAPGKERELVASITASGDSTYYADSVKGRFTISRDNAKNTVYLPMNSLKPEDTAVFYCNTQAVYGGGEGGYDYWGQGTQVTVSS,low polyreactivity
19,QVQLVESGGGLVQAGGSLRLSCPASGRTFWYYAMGWYRQAPGKVRELVAAITWSGSDTYYADSVKGRFTISRDNAKNTVYVQMNSLKPEDTAVYFCAAEYYYESSGYDYWGQGTQVTVSS,high polyreactivity
20,QVQLVESGGGLVQAGGSLRLSCAASGRTFDTYAMGWYRQAPGKERELVAAITRRTYYADSVKGRFTISRDNAKNTVYLQMNSLKPEDTAVYYCAVRFLRKWTSSRHYGYWGQGTQVTVSS,high polyreactivity
21,QVQLVESGGGLVQAGGSLRFSCAASGGNFGYYAMGWYRQAPGKERELVARISSSGGSTYYADSVKGRFTISRDNAKNTVYLQMNSLKPEDTAVYYCNTASNRYPGWRAEFDYWGQGTQVTVSS,low polyreactivity
22,QVQLVESGGGLVQAGGSLRLICAASGIIFDPNAMGWYRQAPGKERELVAAITHTGSTSYADSVKGRFTISRDNAKNTVYLQMNRLNPEDTAVYYCAAGTWVRAWYRYWYDFEYWGQGTQVTVSS,high polyreactivity

row,Sequence,polyreactivity (PSR sort gate)
1,QVQLVESGGGLVQAGGSLRLSCAASGRTFSIYAMGWYRQAPGKERELVAAISRGVTTYADSVKGRFTISRDNAKNTVYLQMNSLKPEDTAVYYCNARTVVYVRGGYWGQGTQVTVSS,low polyreactivity
2,QVQLVESGGGLVQAGGSLRLSCAASGSTFTNYAMGWYRQAPGKERELVAAITSGGSTYYADSVKGRFTISRDNAKNTVYLQMNSLKPEDTAVYYCNAVYFSEYDSWGQGTQVTVSS,low polyreactivity
3,QVQLVESGGGLVQAGGSLRLSCAASGINYVRYAMGWYRQAPGKEREFVAAITRNGGRTYYADSVKGRFTISRDNAKNTVYLQMNSLKPEDTAVYYCAAYPAYPGTLEMDYWGQGTQVTVSS,high polyreactivity
4,QVQMQESGGGLVLAGGSLRLSCASSGSISAQAYMGWDRQAPGKEREHVAGINYGDNTNYADSVKGRFTISRDNEHRVSADEQPETGRYRGVLLRGFLELFYYYIYWGQGTQVTVSS,high polyreactivity
5,QVQLVESGGGFVQAGGSLRLSCAASGRTFQFYAMGWYRQAPGKERELVAAITYSGDSTYYADSVKGRFTISRDNAKNTVYLQMNSLKPEDTAVYYCAAGVWFYWYEYDYWGQGTQVTVSS,high polyreactivity
6,HVQLVESGGGLVQAGGSLRLSCAASGSNFDKYAMGGYRQAPGKERELGAAISRGGSSTYYADSVKGRFTISRDNAKNTVYLQMNSLKPEDTAVYYCAARIRNWPAMDYWGQGTQVTVSS,high polyreactivity
7,QVQLVESGGGLVQAGGSLRLSCAASGSIFQHYAMGWYRQAPGKERELVAAISYDTTSTYYADSVKGLFTISRDNAKNTVYLQMNSLKPEDPAVYYCNTDPEVYGPFQYDYWGQGTQVTVSS,low polyreactivity
8,QVQLVESGGGLVQAGGSLRLSCADSGFILDYNTMGWYRQAPGKERELVAAISSSGDTTYYADSVKGRFTISRDNAKNTVYLQMNSLKPEDTAVYYCAREYGDGYEYWGQGTQVTVSS,low polyreactivity
9,QVQLVESGGGLVQAGGSLRLSCAASGFTFGDNAMGWYRQAPGKERELVAAITSTGGSTNYADSVKGRFTISRDNAKNTVYLQINSLKPEDTAVYYCAAEWLYPHDGGYPRPMDYWGQGTQVTVSS,low polyreactivity
10,KVQLVESGSGLVQAGGSHSISCAASGGTIACYVMGWYRPAPGKEREFVATISWSGTSTYYADSVKGRFTISRDNAKNTVDLLMYSLKPEDTAVFYCNKPGSSWPDFYSYNYWGLGTQVTVSS,low polyreactivity
11,QVQLVESGGGLVQAGGSLRLSCAASGRNFTDNDMGWYIQAPGKEMDLVAGINWSSGSTYYADSVKGRFTISRDNAKNTVYLQMNSLKTEDTAVYYCNALGYWRSTVHFVVGEVDYWGQGTQVTLSS,low polyreactivity
12,QVQHEESRGGLVQAGGSLRLSCAASVRTFSVNAMGRYRQAPGKEREFVAVISSNGGSTYYADSVKGRFTISLDNAKNTVYLQMNSLKPEDTAVYYCNARYWRGWGGRVSKYGYWGHGTQVTVSS,high polyreactivity
13,QVQLVESGGGLVQAGGSLRLSCAASGSIFYKYMGWYRQAPGKERELVAAITWSGGSTYYADSVKGRFTISRDNAKNTVYLQMNSLKPEDTAVYYCAARDYTRYGYGYWGQGTQVTVSS,high polyreactivity
14,QVQLVESGGGLVQAGGSLRFSCAASGFIFRYYAMGWYRQAPGKERELVAAIDYSGGSTIYADSVKGRFTISRDNAKNTVYLQMNSLKPEDTAVYYCNAEYTWHRGYDYWGQGTQVTVSS,low polyreactivity
15,QVQLVESGGGLVQAGGSLRLSCAASGSIFGAYAMGWYRQAPGKEREFVAAISSRGGNTYYADSVKGRFTISRDNAKNTVYLQMNSLKPEDTAVYYAVFRYHWKYDYWGQGTQVTVSS,high polyreactivity
16,QDQLVESVGGLVQAGGSLRLIFAASGSILTFYAMGWYRQAPGKERELVAAITWRGCSTYYADSVKGRFTISRDNEKNTVYLQMNSLKPEDTAVYYCAAERYGPRYDYWGQGTQVTLSS,high polyreactivity
17,QVQLVESGGGLVQAGGSLRLSCAASGFTFKFYAMGWYRQAPGKEREFVAAISHSGGRTYYADSVKGRFTISSDNAKNTVYLQLNILKPEDTAFYYCAAAEGGGLVTYDYWGQGTQVTVSS,low polyreactivity
18,QVQLVESGGGLVQAGGSLRFSCAASGRTFYFYAMGWYRQAPGKERELVAAIRSSGGSTNYADSVKGRFTISRDNAKNTVYLQMNSLKPEDTAVYYCAAKRRAKGNYAFYYWGQGTQVTVSS,high polyreactivity
19,QVQLVESGGGLVQAGGSLRLSCAASGSIFSGYVMGWYRQSPGKESELDAAISYSGGSKYYADSVKGRFTISRDNAKNTVYLQMNSLKPEDTAVYFCAAPGWLSQPRYRGYDYWGQGTQVSVSS,high polyreactivity
20,QVQLVESGGGLVQAGGSLRLSCAASGFTFWYYAMGWYRQAPGKERELVATITSGGRTSYADSVKGRFTISRDNAKNTVYLQMNSLKPEDTAVYYCAAVARYTPGYGYWGQGTQVTVSS,high polyreactivity
21,QVQLVESGGGLVQAGGSLRLSCAASGFTFKYYVMGWYRQAPGKERELVASISKRGGSTRYADSVKGRFTISRDNAKNTVYLQMNSLKPEDTAVYYCAARSKVHRWRKRYDYWGQGTQVSVSS,high polyreactivity
